From PMC8106667 (Molecular cell, 2021)
Blank lines part the entries; values can stand above or below the binder they belong to.

B1: ORC1-180-240-HIS6 wild type (domain or fragment, human, UniProt Q13415 180-240, looked up)
chain: QESAAKCQKPVRAKSKSAESPSWTPAEHVAKRIESRHSASKSRQTPTHPLTPRARKRLELG
B3: GST-CDC6 wild type, full length (natural protein, human, UniProt Q99741 1-560, looked up)
chain: MPQTRSQAQATISFPKRKLSRALNKAKNSSDAKLEPTNVQTVTCSPRVKALPLSPRKRLGDDNLCNTPHLPPCSPPKQGKKENGPPHSHTLKGRRLVFDNQLTIKSPSKRELAKVHQNKILSSVRKSQEITTNSEQRCPLKKESACVRLFKQEGTCYQQAKLVLNTAVPDRLPAREREMDVIRNFLREHICGKKAGSLYLSGAPGTGKTACLSRILQDLKKELKGFKTIMLNCMSLRTAQAVFPAIAQEICQEEVSRPAGKDMMRKLEKHMTAEKGPMIVLVLDEMDQLDSKGQDVLYTLFEWPWLSNSHLVLIGIANTLDLTDRILPRLQAREKCKPQLLNFPPYTRNQIVTILQDRLNQVSRDQVLDNAAVQFCARKVSAVSGDVRKALDVCRRAIEIVESDVKSQTILKPLSECKSPSEPLIPKRVGLIHISQVISEVDGNRMTLSQEGAQDSFPLQQKILVCSLMLLIRQLKIKEVTLGKLYEAYSKVCRKQQVAAVDQSECLSLSGLLEARGILGLKRNKETRLTKVFFKIEEKEIEHALKDKALIGNILATGLP

Columns and labels:
Assay in all cases: pull-down
[1] = biological target: T1, MBP-ORC1-230-400 A-A (Cy motif mutant) (human, UniProt Q13415 230-400, K235A | L237A)
T1 sequence (looked up): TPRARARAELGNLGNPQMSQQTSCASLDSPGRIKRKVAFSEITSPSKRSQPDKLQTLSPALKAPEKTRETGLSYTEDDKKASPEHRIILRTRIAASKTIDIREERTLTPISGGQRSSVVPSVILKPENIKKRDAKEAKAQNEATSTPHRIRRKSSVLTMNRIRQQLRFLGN

[2] = biological target: T2, MBP-ORC1-230-400 wild type (human, UniProt Q13415 230-400)
T2 sequence (looked up): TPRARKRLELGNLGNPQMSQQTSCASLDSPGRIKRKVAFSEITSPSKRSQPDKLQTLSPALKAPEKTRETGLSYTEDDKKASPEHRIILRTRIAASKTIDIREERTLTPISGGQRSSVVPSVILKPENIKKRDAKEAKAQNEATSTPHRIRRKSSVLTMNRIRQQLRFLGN

[3] = biological target: B3
[4] = biological target: B1
[5] = biological target: T3, MBP-ORC1 wild type, full length (human, UniProt Q13415 1-861)
T3 sequence (looked up): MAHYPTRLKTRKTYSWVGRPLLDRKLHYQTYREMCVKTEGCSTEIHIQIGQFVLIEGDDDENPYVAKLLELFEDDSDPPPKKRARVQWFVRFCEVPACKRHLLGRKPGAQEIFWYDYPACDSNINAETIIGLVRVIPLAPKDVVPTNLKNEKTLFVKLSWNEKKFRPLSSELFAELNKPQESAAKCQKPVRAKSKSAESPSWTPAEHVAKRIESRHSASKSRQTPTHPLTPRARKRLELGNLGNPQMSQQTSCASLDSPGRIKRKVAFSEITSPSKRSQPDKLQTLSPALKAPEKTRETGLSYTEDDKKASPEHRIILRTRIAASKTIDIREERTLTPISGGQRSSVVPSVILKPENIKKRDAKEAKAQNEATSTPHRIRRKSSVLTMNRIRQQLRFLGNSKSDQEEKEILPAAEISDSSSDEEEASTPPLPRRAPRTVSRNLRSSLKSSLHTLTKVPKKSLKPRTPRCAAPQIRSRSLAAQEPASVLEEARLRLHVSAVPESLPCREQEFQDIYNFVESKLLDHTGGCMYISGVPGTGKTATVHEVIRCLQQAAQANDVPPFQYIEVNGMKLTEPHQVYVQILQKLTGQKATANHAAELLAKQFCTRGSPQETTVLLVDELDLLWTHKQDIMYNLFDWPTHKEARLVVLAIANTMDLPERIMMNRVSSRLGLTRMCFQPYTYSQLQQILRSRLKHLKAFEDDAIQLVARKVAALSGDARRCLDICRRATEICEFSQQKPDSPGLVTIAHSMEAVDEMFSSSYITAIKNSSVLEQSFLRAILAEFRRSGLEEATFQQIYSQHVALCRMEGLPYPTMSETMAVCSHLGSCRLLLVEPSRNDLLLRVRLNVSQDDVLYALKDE

[6] = biological target: T4, MBP-ORC2 (human, UniProt Q13416 1-577)
T4 sequence (looked up): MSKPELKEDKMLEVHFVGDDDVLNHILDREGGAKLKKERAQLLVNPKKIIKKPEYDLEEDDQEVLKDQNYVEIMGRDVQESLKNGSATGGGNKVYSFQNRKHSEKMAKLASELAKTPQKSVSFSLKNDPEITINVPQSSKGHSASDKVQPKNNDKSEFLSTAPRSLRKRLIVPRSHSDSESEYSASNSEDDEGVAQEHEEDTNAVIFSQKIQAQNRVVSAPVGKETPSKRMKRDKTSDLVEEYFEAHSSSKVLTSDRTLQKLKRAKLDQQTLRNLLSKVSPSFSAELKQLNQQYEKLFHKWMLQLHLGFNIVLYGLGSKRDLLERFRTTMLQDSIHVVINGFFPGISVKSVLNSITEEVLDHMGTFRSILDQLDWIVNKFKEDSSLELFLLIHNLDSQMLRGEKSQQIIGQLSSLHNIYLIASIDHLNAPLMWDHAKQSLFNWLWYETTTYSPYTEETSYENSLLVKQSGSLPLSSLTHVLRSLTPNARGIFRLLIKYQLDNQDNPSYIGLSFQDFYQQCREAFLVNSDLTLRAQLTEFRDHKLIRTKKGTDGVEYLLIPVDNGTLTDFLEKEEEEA

[7] = biological target: T5, MBP-ORC1-PSM123 (Phosphorylation Site Mutant, S258A, S273A and T375A) (human, UniProt Q13415 1-861, S258A | S273A | T375A)
T5 sequence (looked up): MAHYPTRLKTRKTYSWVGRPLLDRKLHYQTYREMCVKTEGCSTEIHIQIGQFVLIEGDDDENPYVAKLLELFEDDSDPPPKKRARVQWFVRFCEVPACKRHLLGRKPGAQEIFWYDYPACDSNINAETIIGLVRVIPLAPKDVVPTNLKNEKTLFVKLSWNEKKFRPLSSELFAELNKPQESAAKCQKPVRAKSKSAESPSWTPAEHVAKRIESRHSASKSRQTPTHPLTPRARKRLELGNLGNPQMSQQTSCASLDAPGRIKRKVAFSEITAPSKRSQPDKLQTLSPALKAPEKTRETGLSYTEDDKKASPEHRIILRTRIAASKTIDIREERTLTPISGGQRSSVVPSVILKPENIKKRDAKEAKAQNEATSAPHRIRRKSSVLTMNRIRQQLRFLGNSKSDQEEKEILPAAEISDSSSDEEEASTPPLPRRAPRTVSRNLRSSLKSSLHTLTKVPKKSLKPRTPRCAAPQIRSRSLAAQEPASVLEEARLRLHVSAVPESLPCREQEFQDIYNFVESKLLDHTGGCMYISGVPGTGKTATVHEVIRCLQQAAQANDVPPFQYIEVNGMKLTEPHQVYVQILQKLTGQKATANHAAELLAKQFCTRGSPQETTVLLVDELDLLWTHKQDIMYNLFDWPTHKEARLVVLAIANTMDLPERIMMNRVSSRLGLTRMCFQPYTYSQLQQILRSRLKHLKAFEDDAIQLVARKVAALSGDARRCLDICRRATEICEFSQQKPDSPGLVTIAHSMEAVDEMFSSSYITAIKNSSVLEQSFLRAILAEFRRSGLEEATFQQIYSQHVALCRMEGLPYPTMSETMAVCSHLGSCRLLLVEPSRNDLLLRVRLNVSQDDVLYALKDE

[8] = biological target: T6, MBP-ORC1 R105Q (human, UniProt Q13415 1-861, R105Q)
T6 sequence (looked up): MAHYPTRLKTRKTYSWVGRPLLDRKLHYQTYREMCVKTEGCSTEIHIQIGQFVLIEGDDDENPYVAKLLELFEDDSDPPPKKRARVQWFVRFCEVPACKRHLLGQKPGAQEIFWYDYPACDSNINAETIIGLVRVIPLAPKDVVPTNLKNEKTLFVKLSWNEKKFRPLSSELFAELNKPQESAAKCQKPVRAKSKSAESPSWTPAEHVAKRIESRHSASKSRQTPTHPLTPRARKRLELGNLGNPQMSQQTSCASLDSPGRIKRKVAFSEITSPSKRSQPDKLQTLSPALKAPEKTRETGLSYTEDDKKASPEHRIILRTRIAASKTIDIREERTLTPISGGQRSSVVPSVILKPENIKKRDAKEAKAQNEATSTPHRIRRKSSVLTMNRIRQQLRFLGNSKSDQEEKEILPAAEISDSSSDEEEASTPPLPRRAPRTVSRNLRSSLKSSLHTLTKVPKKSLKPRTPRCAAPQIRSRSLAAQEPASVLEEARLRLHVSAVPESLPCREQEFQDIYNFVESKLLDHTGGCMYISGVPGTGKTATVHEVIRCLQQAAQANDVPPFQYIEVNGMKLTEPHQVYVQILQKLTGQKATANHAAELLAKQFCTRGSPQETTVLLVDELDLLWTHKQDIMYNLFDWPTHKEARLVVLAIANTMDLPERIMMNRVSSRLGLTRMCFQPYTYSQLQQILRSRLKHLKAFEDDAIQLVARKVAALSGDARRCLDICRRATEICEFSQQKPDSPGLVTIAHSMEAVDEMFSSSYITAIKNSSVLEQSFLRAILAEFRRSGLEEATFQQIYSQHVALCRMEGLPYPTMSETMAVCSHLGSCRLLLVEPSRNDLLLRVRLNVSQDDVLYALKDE

Binder: B1
binding result [1]: binds
binding result [2]: binds
binding result [3]: binds

binding result [4]: binds
B2: MBP-ORC1-350-400 wild type (domain or fragment, human, UniProt Q13415 350-400, looked up)
chain: SVILKPENIKKRDAKEAKAQNEATSTPHRIRRKSSVLTMNRIRQQLRFLGN

Binder: B3
binding result [5]: binds
binding result [6]: binds
binding result [7]: binds
binding result [8]: binds
